± gives the uncertainty stated by the source.
Test: protein stability index of a GFP-peptide fusion (yeast GPS) (PSI 1-4); higher = more stable; sorted into four equal gates, so the index is relative within each strain
Settings: pdr5∆
Summary of the method: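 Plasmids isolated from each sorting gate were PCR-amplified and Illumina-sequenced, and barcodes assigned the reads to strains. The gates, four of equal size, were set by GFP/Cherry fluorescence ratio on mid-log cultures in leucine-free medium. These cultures were yeast carrying a pooled library of tiled 17-residue yeast protein peptides fused downstream of GFP on a plasmid that also expresses Cherry. The protein stability index is the sum of every gate's read frequency times its gate number.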
Work on NTNNINNSSSGMNNASA [YGL172W/NUP49] yielded a protein stability index of 3.17 ± 0.079.
Sequence NTQPSASGFGFGGSQPN [YGR119C/NUP57] has a protein stability index of 2.72 ± 0.15.
NTTVISDKQRRLLAKDA [DIS3] gave a protein stability index of 2.23 ± 0.045.
For NVDKNLNEIKEHKIVVL [RPN14], the protein stability index was 2.38 ± 0.069.

Same assay, conditions: san1∆
Sequence NKKSEENEMIKPMNKGQ [SWP82] has a protein stability index of 3.39 ± 0.067.
For NKLGNDPSLNLKLLAKS [BRR2], the protein stability index was 2.86 ± 0.07.
Sequence NKLGNKRLTEDERIEKE [CDC53] has a protein stability index of 2.31 ± 0.059.
With NKLLRRKLMEMENILQR [YIL149C/MLP2] the protein stability index was 3.33 ± 0.11.
In the case of NKLTILGRDYPIEVDEE [IRR1], the protein stability index is reported as 2.38 ± 0.11.
Sequence NKQIEILTDLVNYRHFK [ITC1] has a protein stability index of 3.03 ± 0.043.
NKSRSSGHFSTDSRTGQ [CDC53] showed a protein stability index of 3.12 ± 0.041.
Work on NKYANNDFANNLPKEGD [CSL4] yielded a protein stability index of 2.9 ± 0.065.
With NKYPELLGKDNEDDALI [AAR2] the protein stability index was 3.33 ± 0.051.
With NLATWYHSAGGRDKHAL [SSN3] the protein stability index was 3.16 ± 0.11.
NLEESSKLDIYTQQQAL [RET1] gave a protein stability index of 2.47 ± 0.07.
Sequence NLEIPAYEFDGDKVIVG [RIP1] has a protein stability index of 2.65 ± 0.064.
For NLENHFKKSKIDHINEE [SCL1], the protein stability index was 2.64 ± 0.065.
Sequence NLETLVTTKDDLSGADI [RPT2] has a protein stability index of 3.27 ± 0.037.
Work on NLGSNVRNSFPLDEIPV [REC8] yielded a protein stability index of 2.88 ± 0.087.
Work on NLGSRTKNNTQASGITA [SSN3] yielded a protein stability index of 2.18 ± 0.054.
NLINLSIGASIADLASL [YCS4] gave a protein stability index of 2.39 ± 0.071.
For NLKLISVSLVDEFPSEL [SIR4], the protein stability index was 2.5 ± 0.06.
In the case of NLLESITKLLEINLSKI [YCS4], the protein stability index is reported as 2.94 ± 0.036.
Work on NLLLRELNVEKLNTFNL [SRP72] yielded a protein stability index of 2.95 ± 0.099.
In the case of NLNELESQLQMDRTSLR [SMC3], the protein stability index is reported as 2.5 ± 0.22.
NLSEARLVIKEALVERR [RPB4] showed a protein stability index of 2.83 ± 0.21.
With NLSIDEVAVPDRVAKVL [RPO31] the protein stability index was 3.11 ± 0.06.
NLTAGIIVAGYDDKNKG [PRE3] gave a protein stability index of 2.53 ± 0.12.
NNAKLLTFMTCNSLHIP [ESC2] showed a protein stability index of 1.6 ± 0.079.
Work on NNDADKGRSYAYFMVGA [RIP1] yielded a protein stability index of 3.29 ± 0.084.
In the case of NNEKVVQYLRSVQDLGG [YML031W/NDC1], the protein stability index is reported as 3.44 ± 0.19.
Sequence NNLFRIIAELSFLKVDP [YJL039C/NUP192] has a protein stability index of 3.24 ± 0.093.
NNMNVNMNLNPQMFLNQ [GAL11] showed a protein stability index of 2.46 ± 0.048.
NNNHKDKKLLRRLLNLY [SWI1] gave a protein stability index of 2.92 ± 0.058.
NNNNTNTQPSASGFGFG [YGR119C/NUP57] gave a protein stability index of 2.51 ± 0.062.
In the case of NNNNTTTTTTTTNNNNT [SWI1], the protein stability index is reported as 3.363 ± 0.023.
NNSNTVASSTNFTSPTA [SWI1] gave a protein stability index of 2.86 ± 0.041.
For NNSSSGMNNASAGLFGS [YGL172W/NUP49], the protein stability index was 3.29 ± 0.036.
Work on NNSTSNANTVFSERAAM [SWI1] yielded a protein stability index of 2.97 ± 0.062.
Work on NNVVINFKDMSHVNKYG [PRP8] yielded a protein stability index of 2.75 ± 0.059.
Sequence NPEPNKKNIQKAKSNQT [IRR1] has a protein stability index of 2.56 ± 0.13.
Work on NPIHVSRHFASYANLPG [FAS1] yielded a protein stability index of 1.94 ± 0.081.
With NPLIELTPIQKKIMDET [ITC1] the protein stability index was 3.24 ± 0.057.
Sequence NPNTNTNSNNTPLQSQL [PGD1] has a protein stability index of 2.88 ± 0.058.
NPRRLEIKDGRSLFLRN [YMR153W/NUP53] showed a protein stability index of 3.2 ± 0.087.
Sequence NPSEFTPNMVNSEISNL [SSN2] has a protein stability index of 2.58 ± 0.08.
Sequence NPSVKQGEVGAVFIVPK [SWP82] has a protein stability index of 3.28 ± 0.12.
NPSYPGMMSTTGTARLN [YJL039C/NUP192] gave a protein stability index of 3.13 ± 0.077.
For NQASTSKRVYKILSPTM [CDC53], the protein stability index was 2.54 ± 0.051.
For NQILMSVNFFVSLLKKN [RPL1A], the protein stability index was 2.15 ± 0.075.
Work on NQPHQSQTPSFNTNSSF [YOR098C/NUP1] yielded a protein stability index of 2.93 ± 0.036.
In the case of NQVGTDELILPLPSHAL [YDL116W/NUP84], the protein stability index is reported as 2.83 ± 0.052.
NRANVSKDELREKLAEV [RPS24A] gave a protein stability index of 3.37 ± 0.072.
For NRGVKLEIVYGYALRDV [RPP1], the protein stability index was 2.46 ± 0.092.
NRRLFKKCIDFFEMLIS [RRI2] gave a protein stability index of 2.12 ± 0.058.
Work on NRRWTQRRGPLVVYAED [RPL4A] yielded a protein stability index of 2.12 ± 0.093.
With NRTFTDPPFRIEEQGWG [TAF14] the protein stability index was 3.11 ± 0.1.
In the case of NSAIANEQEEKSEEVKA [RPC37], the protein stability index is reported as 2.61 ± 0.055.
NSITSGGLKSCDLDFPL [YDL116W/NUP84] showed a protein stability index of 3.32 ± 0.072.
In the case of NSKNDSANVELFKRDCN [YCS4], the protein stability index is reported as 3.25 ± 0.12.
With NSLIEEINERSETQTKD [YCG1] the protein stability index was 3.17 ± 0.087.
With NSSKPAFSFGAKSNEDK [YJL041W/NSP1] the protein stability index was 3.32 ± 0.077.
Work on NSSNYAELFNNDIKLFV [PRP8] yielded a protein stability index of 2.26 ± 0.048.
With NSSVGNKTDAQAPTTGF [YJL041W/NSP1] the protein stability index was 3.19 ± 0.058.
With NSTLKKVESQETLNDTI [YCS4] the protein stability index was 2.37 ± 0.13.
For NSWFDVTWRTFTGDFLR [FAS1], the protein stability index was 1.98 ± 0.12.
With NSYQPSPFFVLDEVDAA [SMC1] the protein stability index was 2.49 ± 0.12.
In the case of NTATNALRPSDIFGANA [YOR098C/NUP1], the protein stability index is reported as 3.27 ± 0.061.
In the case of NTCTISTSKFESQYPIV [SWP82], the protein stability index is reported as 2.97 ± 0.074.
NTEGSVVYEDSLELEKV [SNF2] showed a protein stability index of 2.48 ± 0.095.
Sequence NTFVTRLNNVFVIGEQG [RPS4A] has a protein stability index of 3.22 ± 0.13.
NTKEEFAAAPNDTSSGT [SNF5] gave a protein stability index of 2.96 ± 0.055.
With NTLEFIIEQLSIAAERY [YCG1] the protein stability index was 2.16 ± 0.066.
Work on NTLLISGPFKVNGVPLR [RPL6A] yielded a protein stability index of 2.28 ± 0.076.
NTLYTAIITDDLDTVLK [SRP72] gave a protein stability index of 2.44 ± 0.041.
NTNNINNSSSGMNNASA [YGL172W/NUP49] gave a protein stability index of 3.25 ± 0.056.

— the supplement of paper PMC9732359
